3 molecules from patent US20230114801A1 (SYSTIMMUNE, published 2023) can be followed below.

Test in all cases: BLI (Octet), binder on AHC sensor, 100 nM human antigen, 1:1 fit
Background: Biolayer interferometry detects binding as a change in optical thickness at a sensor tip.

One assay deals with T1, human CD3 (human, UniProt P07766 23-126; P04234 22-105).
T1 construct: also called His-tagged human CD3; human CD3 (Acro CDD-H52W1)

The next assay deals with T2, human EGFR (human, UniProt P00533 25-645, limits assumed).
T2 construct: Soluble antigen in Octet; construct not described

In the next assay the target is T3, human 4-1BB (human, UniProt Q07011 24-186, limits assumed).
T3 construct: Soluble antigen in Octet; construct not described

For the next assay, the target named is T4, human PD-L1 (human, UniProt Q9NZQ7 19-238).
T4 construct: Soluble antigen in Octet; bought; also called human PD-L1 (Acro PD1-H5229)

A further assay concerns the target T5, human HER3 (human, UniProt P21860 20-643).
T5 construct: Soluble antigen in Octet; bought; also called human HER3 (Acro ER3-H5223)

B1: SI-75P3 (other)
chain 1: EIVLTQSPSTLSVSPGERATFSCRASQSIGTNIHWYQQKPGKPPRLLIKYASESISGIPDRFSGSGSGTEFTLTISSVQSEDFAVYYCQQNNNWPTTFGPGTKLTVLGGGGSGGGGSGGGGSGGGGSQVQLQQSGPGLVKPSETLSITCTVSGFSLTNYGVHWIRQAPGKGLEWLGVIWSGGNTDYNTPFTSRFTITKDNSKNQVYFKLRSVRADDTAIYYCARALTYYDYEFAYWGQGTLVTVSSGGGGSGGGGSEVQLVESGGGLVQPGGSLRLSCAASGFTISTNAMSWVRQAPGKGLEWIGVITGRDITYYASWAKGRFTISRDNSKNTLYLQMNSLRAEDTAVYYCARDGGSSAITSNNIWGQGTLVTVSSASTKGPSVFPLAPSSKSTSGGTAALGCLVKDYFPEPVTVSWNSGALTSGVHTFPAVLQSSGLYSLSSVVTVPSSSLGTQTYICNVNHKPSNTKVDKRVEPKSCDKTHTCPPCPAPEAAGGPSVFLFPPKPKDTLMISRTPEVTCVVVDVSHEDPEVKFNWYVDGVEVHNAKTKPREEQYNSTYRVVSVLTVLHQDWLNGKEYKCAVSNKALPAPIEKTISKAKGQPREPQVYTLPPSRDELTKNQVSLSCAVKGFYPSDIAVEWESNGQPENNYKTTPPVLDSDGSFFLVSKLTVDKSRWQQGNVFSCSVMHEALHNHYTQKSLSLSPGGGGGSGGGGSDVVMTQSPSSVSASVGDRVTITCQASQNIRTYLSWYQQKPGKAPKLLIYAAANLASGVPSRFSGSGSGTDFTLTISDLEPGDAATYYCQSTYLGTDYVGGAFGGGTKLTVLGGGGSGGGGSGGGGSGGGGSEVQLVESGGGLVQPGGSLRLSCTASGFTISSYHMQWVRQAPGKGLEYIGTISSGGNVYYASSARGRFTISRPSSKNTVDLQMNSLRAEDTAVYYCARDSGYSDPMWGQGTLVTVSS
chain 2: QSALTQPASVSGSPGQSITISCTGTSSDVGGYNFVSWYQQHPGKAPKLMIYDVSDRPSGVSDRFSGSKSGNTASLIISGLQADDEADYYCSSYGSSSTHVIFGGGTKVTVLGGGGSGGGGSGGGGSGGGGSQVQLQESGGGLVKPGGSLSLSCAASGFTFSSYWMSWVRQAPGKGLEWVANINRDGSASYYVDSVKGRFTISRDDAKNSLYLQMNSLRAEDTAVYYCARDRGVGYFDLWGRGTLVTVSSGGGGSGGGGSDVVMTQSPSTLSASVGDRVTINCQASESISSWLAWYQQKPGKAPKLLIYEASKLASGVPSRFSGSGSGTEFTLTISSLQPDDFATYYCQGYFYFISRTYVNSFGGGTKVEIKRTVAAPSVFIFPPSDEQLKSGTASVVCLLNNFYPREAKVQWKVDNALQSGNSQESVTEQDSKDSTYSLSSTLTLSKADYEKHKVYACEVTHQGLSSPVTKSFNRGECGGDKTHTCPPCPAPEAAGGPSVFLFPPKPKDTLMISRTPEVTCVVVDVSHEDPEVKFNWYVDGVEVHNAKTKPREEQYNSTYRVVSVLTVLHQDWLNGKEYKCAVSNKALPAPIEKTISKAKGQPREPQVYTLPPSRDELTKNQVSLWCLVKGFYPSDIAVEWESNGQPENNYKTTPPVLDSDGSFFLYSKLTVDKSRWQQGNVFSCSVMHEALHNRFTQKSLSLSPGGGGGSGGGGSDIQMTQSPSTLSASVGDRVTITCQASQSISSHLNWYQQKPGKAPKLLIYKASTLASGVPSRFSGSGSGTEFTLTISSLQPDDFATYYCQQGYSWGNVDNVFGGGTKVTVLGGGGSGGGGSGGGGSGGGGSEVQLLESGGGLVQPGGSLSLSCAASGFSFSSGYDMCWVRQAPGKGLEWIACIAAGSAGITYDANWAKGRFTISRDNSKNTLYLQMNSLRAEDTAVYYCARSAFSFDYAMDLWGQGTLVTVSS
notes: penta-miniGNC; D1 αEGFR, D2 αHER3, D3 αCD3 (Fab), D4 α4-1BB, D5 αPD-L1
As to B1, the Kd with human CD3 turned out to be 17.4 nM; with human EGFR, 8.91 nM; in the assay with human 4-1BB, 7.51 nM; in the assay with human PD-L1, 1 nM.

B2: SI-75E2 (other)
chain 1: EIVLTQSPSTLSVSPGERATFSCRASQSIGTNIHWYQQKPGKPPRLLIKYASESISGIPDRFSGSGSGTEFTLTISSVQSEDFAVYYCQQNNNWPTTFGPGTKLTVLGGGGSGGGGSGGGGSGGGGSQVQLQQSGPGLVKPSETLSITCTVSGFSLTNYGVHWIRQAPGKGLEWLGVIWSGGNTDYNTPFTSRFTITKDNSKNQVYFKLRSVRADDTAIYYCARALTYYDYEFAYWGQGTLVTVSSGGGGSGGGGSEVQLVESGGGLVQPGGSLRLSCAASGFTISTNAMSWVRQAPGKGLEWIGVITGRDITYYASWAKGRFTISRDNSKNTLYLQMNSLRAEDTAVYYCARDGGSSAITSNNIWGQGTLVTVSSASTKGPSVFPLAPSSKSTSGGTAALGCLVKDYFPEPVTVSWNSGALTSGVHTFPAVLQSSGLYSLSSVVTVPSSSLGTQTYICNVNHKPSNTKVDKRVEPKSCDKTHTCPPCPAPEAAGGPSVFLFPPKPKDTLMISRTPEVTCVVVDVSHEDPEVKFNWYVDGVEVHNAKTKPREEQYNSTYRVVSVLTVLHQDWLNGKEYKCAVSNKALPAPIEKTISKAKGQPREPQVYTLPPSRDELTKNQVSLSCAVKGFYPSDIAVEWESNGQPENNYKTTPPVLDSDGSFFLVSKLTVDKSRWQQGNVFSCSVMHEALHNHYTQKSLSLSPG
chain 2: B1 chain 2
notes: tetra-miniGNC; D1 αEGFR, D2 αHER3, D3 αCD3 (Fab), D5 αPD-L1; also called tetra-miniGNC (SI-75E2)
With B2, the Kd with human CD3 amounted to 22.1 nM; in the assay with human EGFR, 8.24 nM; with human HER3 it was 114 nM; with human PD-L1, 1.36 nM.

B3: SI-75P6 (other)
chain 1: DVVMTQSPSTLSASVGDRVTINCQASESISSWLAWYQQKPGKAPKLLIYEASKLASGVPSRFSGSGSGTEFTLTISSLQPDDFATYYCQGYFYFISRTYVNSFGGGTKVEIKGGGGSGGGGSGGGGSGGGGSEVQLVESGGGLVQPGGSLRLSCAASGFTISTNAMSWVRQAPGKGLEWIGVITGRDITYYASWAKGRFTISRDNSKNTLYLQMNSLRAEDTAVYYCARDGGSSAITSNNIWGQGTLVTVSSGGGGSGGGGSQVQLQQSGPGLVKPSETLSITCTVSGFSLTNYGVHWIRQAPGKGLEWLGVIWSGGNTDYNTPFTSRFTITKDNSKNQVYFKLRSVRADDTAIYYCARALTYYDYEFAYWGQGTLVTVSSASTKGPSVFPLAPSSKSTSGGTAALGCLVKDYFPEPVTVSWNSGALTSGVHTFPAVLQSSGLYSLSSVVTVPSSSLGTQTYICNVNHKPSNTKVDKRVEPKSCDKTHTCPPCPAPEAAGGPSVFLFPPKPKDTLMISRTPEVTCVVVDVSHEDPEVKFNWYVDGVEVHNAKTKPREEQYNSTYRVVSVLTVLHQDWLNGKEYKCAVSNKALPAPIEKTISKAKGQPREPQVYTLPPSRDELTKNQVSLSCAVKGFYPSDIAVEWESNGQPENNYKTTPPVLDSDGSFFLVSKLTVDKSRWQQGNVFSCSVMHEALHNHYTQKSLSLSPGGGGGSGGGGSDVVMTQSPSSVSASVGDRVTITCQASQNIRTYLSWYQQKPGKAPKLLIYAAANLASGVPSRFSGSGSGTDFTLTISDLEPGDAATYYCQSTYLGTDYVGGAFGGGTKLTVLGGGGSGGGGSGGGGSGGGGSEVQLVESGGGLVQPGGSLRLSCTASGFTISSYHMQWVRQAPGKGLEYIGTISSGGNVYYASSARGRFTISRPSSKNTVDLQMNSLRAEDTAVYYCARDSGYSDPMWGQGTLVTVSS
chain 2: QSALTQPASVSGSPGQSITISCTGTSSDVGGYNFVSWYQQHPGKAPKLMIYDVSDRPSGVSDRFSGSKSGNTASLIISGLQADDEADYYCSSYGSSSTHVIFGGGTKVTVLGGGGSGGGGSGGGGSGGGGSQVQLQESGGGLVKPGGSLSLSCAASGFTFSSYWMSWVRQAPGKGLEWVANINRDGSASYYVDSVKGRFTISRDDAKNSLYLQMNSLRAEDTAVYYCARDRGVGYFDLWGRGTLVTVSSGGGGSGGGGSEIVLTQSPSTLSVSPGERATFSCRASQSIGTNIHWYQQKPGKPPRLLIKYASESISGIPDRFSGSGSGTEFTLTISSVQSEDFAVYYCQQNNNWPTTFGPGTKLTVLRTVAAPSVFIFPPSDEQLKSGTASVVCLLNNFYPREAKVQWKVDNALQSGNSQESVTEQDSKDSTYSLSSTLTLSKADYEKHKVYACEVTHQGLSSPVTKSFNRGECGGDKTHTCPPCPAPEAAGGPSVFLFPPKPKDTLMISRTPEVTCVVVDVSHEDPEVKFNWYVDGVEVHNAKTKPREEQYNSTYRVVSVLTVLHQDWLNGKEYKCAVSNKALPAPIEKTISKAKGQPREPQVYTLPPSRDELTKNQVSLWCLVKGFYPSDIAVEWESNGQPENNYKTTPPVLDSDGSFFLYSKLTVDKSRWQQGNVFSCSVMHEALHNRFTQKSLSLSPGGGGGSGGGGSDIQMTQSPSTLSASVGDRVTITCQASQSISSHLNWYQQKPGKAPKLLIYKASTLASGVPSRFSGSGSGTEFTLTISSLQPDDFATYYCQQGYSWGNVDNVFGGGTKVTVLGGGGSGGGGSGGGGSGGGGSEVQLLESGGGLVQPGGSLSLSCAASGFSFSSGYDMCWVRQAPGKGLEWIACIAAGSAGITYDANWAKGRFTISRDNSKNTLYLQMNSLRAEDTAVYYCARSAFSFDYAMDLWGQGTLVTVSS
notes: penta-miniGNC, IgG1 knobs-into-holes heterodimer; D1 αCD3, D2 αHER3, D3 αEGFR (Fab), D4 α4-1BB, D5 αPD-L1; also called penta-miniGNC (SI-75P6)
Regarding B3, the Kd came to 36.2 nM with human CD3, 5.56 nM with human EGFR, 37.3 nM with human 4-1BB and 1.45 nM with human PD-L1.

The term Kd denotes a measure of binding affinity in units of concentration. Lower therefore signals tighter binding.
